The series in a line: label from the status in PepcDB records.

As for “MKAEFEEASGLTAGNPVRMKGVNVGSVESIRLNQETQTVRARLRIEEGIRIPEGSHAKVAGFSGIGGVRISILPGPRENPPLPPDATLSAPPEGSVFDRLTDQAPALANKADSVLTSTNTTMSALSTQLQDPDSDLRQALTSAKNITGDLESVTEAEKETLRALLQNLQSVSSDLDTFMGENGDSLDVAVRRLNESLDRLNRGLASLEQTSATLDTVATKLNEGDGTAGRLLNDPSLYLRLDSAAARTNTLLQDFQRDPGRYLNDMTLVKVF”, the protein production entry is reported as “failed”.

On to “MKAGYETMTPEELRRLTATHDEADYEIVDVREPAEYRQGHLPGAKHIPVGEVEARLDELVPGRTHIFYCRSGARSRAALTFAVESGLTLGPLYDLAGGILAWDGHTVPDEPRLATFAHVSDMRSLLLRAIDMEKAVHGLYTRVRAASGRPVVCELMDRLVGVEVAHARVIYRELRKWWAAADGELPPFETLFETLEGRVLEGGRSVDELEPWIRSASTGDCHEVADLALELEFAAYDLYRTLADEAVQGSGLGEDAARVFLDLASQEKAHARMIVAAMARFGEEGADATA”, for which the protein production result is on record as “failed”.

On to “MKALFFTRMFTLMVSCLMYLSIVKEDNWFGYVFIAAGAAMYAANHVLLTKETNAIWFCLIDIAIGFSFGFIFPGTGLFIIMLCPVAVAFFLRGFPKRTAWSVLCLSSILFLTVLIRTYAMFGNEFVIDHLTSMTFVVFCGVVGKLIRKLLDAQDTAKQQFQELTESHLALSAAHQELHLYAKQVEELTAIYERNRMAREIHDTVGHKMTALLVQLQLLREWQKRDSQKADETVGVCETLAREALDDVRLSVRTLQTENDPSLIESLKQLTEDFCKNAGVTTEFAVSGDPAIIPLSLHPTLIRTVQEALTNAKRHGGAAACSIQLACTTDSISLVIKDDGKGNPEAALGFGLLNMKKRAAEHGGMIRFESERDQGFTVNAEFSLANKKWSFGPVQQKESLS”, for which the protein production result was “failed”.

Take “MKALHFGAGNIGRGFIGKLLADAGIQLTFADVNQVVLDALNARHSYQVHVVGETEQVDTVSGVDAVSSIGDDVVDLIAQVDLVTTAVGPVVLERIAPAIAKGLVKRKEQGNESPLNIIACENMVRGTTQLKGHVMNALPEDAKAWVEEHVGFVDSAVDRIVPPSASATNDPLEVTVETFSEWIVDKTQFKGALPNIPGMELTDNLMAFVERKLFTLNTGHAITAYLGKLAGHQTIRDAILDEKIRAVVKGAMEESGAVLIKRYGFDADKHAAYIQKILGRFENPYLKDDVERVGRQPLRKLSAGDRLIKPLLGTLEYSLPHKNLIQGIAGAMHFRSEDDPQAQELAALIADKGPQAALAQISDLDANSEVVSEAVTAYKAMQ”: the protein production result is given as “failed”.

For “MKALVVSDDINFLKQACTLVNGKAEYDAVYVGEGRVSGVGASTLYTVKKGTPYDAVADGILEIMGNYDIIVAGSTEFGREVAGYIAGKTGYYAATEIFSLEFSNGKAKTKRFFYGGKTVIEEESDAKVFTVAPGVIEAKEFESKPEEKDLPIKPSKVRVNKVVPKNAGGVR”, the protein production entry was “failed”.

As to “MKANLERVPIRIGSSWRYKKIDGVEKNCHWHFHNEYELVLFRKNNAKGMVGHFERVIEKNTLWLIPPKMPHAIELLEEKELQCESHIIWLPKEWVENMIFSCTELRRMGELFKRSSNGLCFSTSTAEKVYQLIEKLFKDSILDDLGYLIQILGCLCSDKETRPLQLFSKQEASDKEGKEK”, the protein production entry is “failed”.

Take “MKASIEQLEPYVPEKPLATLQAELGLTELVRLSANENPYGTSPKVATAVKNWDFTQSNRYPDADAQELRQAVAQQQGIDPNSIVFSVGLDEMIVMLSRTFLATNDQVLVSAPTFSEYGLHAEIEGGQLISVPTLPNDHVNFEGLMKAITPHVKMVWLCNPNNPTGTVESLAAIEAFVQQVPPETMVLIDEAYIDFTPGAAQVTAMQLPAKYPNVVVMRTFSKAYGLANFRIGYAVFNTKYAATMQTIRLPYNVNSLAQVAALAAIDDPNFVKQTVQKNATERAKWMAFFDDQGVTYDQSGANFIFFKYPSATQLADYLVHHGYLIRTGLRPGWLRLTVGTANDNQQLQQLIREFKA”: the protein production entry is “failed”.

Regarding “MKAVTTSPSDPPDPFDPLDPVDPLASTKPEVDVVLPCLDEADALPWVLARIPPGWRALVVDNGSTDGSAEIARRLGATVVPETRRGFGAACHAGLTAATADIVCFCDCDGSLDPSLLVPFVREVRDGAADLVLGRRRPHGRGAWPAHARAGNLALARMLRRRTGLRLHDLGPLRAARREPLLALGLTDRRSGYPLQMVVRAADAGWRIAEHDVPYLPRTGVSKVTGTWRGTWQAVRDMSRVLAEPAQDGPPESGSLSSSQGGSSQLEHHHHHH”, the protein production entry was “failed”.

With “MKAYALVGGPTDLWLHDIKKQLTEAKQNNDLIFGVDRGALFLEELGIIPDVAIGDFDSLQAKDLSRIEKTVKDIRYSNPIKDWTDSEIMVQTVFKDYLADKLIILGASGGRIDHFLINLLMWLNPPINQFAQRVEIIDNHNSIVFFNPGVHIIKKKPDYPYIGFATLSETEDFNISGARYDLNDYSSTYPRVFSSNEFLPNSDYFEISLKKGMIAAIYSKDINRFHNLLEHHHHHH”, the protein production entry is “not failed”.

In the case of “MKAYLGLYTARLETPARSLKEKRALIKPALERLKARFPVSAARLYGLDAWGYEVVGFTLLGNDPAWVEETMRAAARFLAEAGGFQVALEEFRLEAFELDGLL”, the protein production result was “not failed”.

As for “MKCRGHKNSYFCQDSNEIKSANSNSPLCGDHSFFEMATKQRKGSRSSGRNTSSANTRKGGNFLRRIFITPIRDTFSRDKVGFVFGAILLAIALYTTIAIGSFFVHGGVDQSVVRDAPVSDILLGRAPVANLCGIRGAVWSEWLMNGLFGFGTLFLLFCVFSLSLKLMGVVKRISVVKRLIFCGVMTFWTSLAAAFIYKLSGLEGFLRWGGMHGQEWTLFLERNIGKAGLIIVLLVLAVIIAVVVRSECMGFFRRLLGLSWISIPKLPKKERKNNHDESENESLGNGYDTGESENLSGYLNNSEYEDGPAGESADDPDDYIPPHKEEGENDSSQSIQMGSMTVELAQEEEKADEALLAEIKTDPRMDLASYKFPSVDLLTQYDLQQPPIDMNEIEENQKRIIATLDSFKIHVTPIKATVGPTVTLYEVAPDSGIKISRIRNLEDDIAMSLKAVGGIRIIAPMPGKGTIGIEVPNRKPQTVSMYSVLTSKKYQESDMDLPVALGKTITNEVFIFDLCKMPHLLIAGATGQGKSVGLNAMITSLLYKKHPAELKFVLVDPKMLEFAVYEAIERHYLAKLPDEDRAIVTDMTKVVPTLNSLCIEMDNRYRMLTEARVRNIKEYNDQIISGKLSRLHGHKFLPYIVLIVDEFADLIMTSGKEVERPITRIAQKARAAGIHMVVATQRPSTDIITGIIKANFPARIAFKVFSMIDSRTILDQPGANQLVGRGDMLFYQGKDTVRLQCAFLDTPECEAVTHHISLQESYTSAYELPEYVPEGEEGGPKAFNPQEKDPLFEEVARMVVNSQQGSTSNIQRKFNIGYNRAGRLMDQLEGAGIVSPQDGSKPRQVLIQDEMSLERLFETLR”, the protein production result is reported as “failed”.

In the case of “MKDIIRFILRLVQNPIVLAILWFGVAIRGFWVSWTEGLANNYLIFSRSFFHALEQTPLYVEYPKEYFDLFLYGIPFTLLIAPFSIMPTMVGSALWSLCNALLLYFAIKKLEFEKWKTAIIVWLSYNGLYLSVVTQQYNAAVAAFILFTFILVERKKDFWAALMIVLGTLTKIYGIVGLAFFLFSKRKLYFLWGILFWAFVLFVVPMFYTSPQYVFDSYKEWVSILVVKNDVNELSFYQNISLLGMVRKITHAVEYSDMWLIIPGIVLFLLPYLRIGQYENRNFRLSFLASVLLFMVLFSTGTEECGYVGALIGVGIWYVSTPTYKKSFVLNTCLLLFCFALTAASSSSILFSKHFRTEYITSFALKALPCAIIWFKIIWEQLTQDYTSRTPTPFLHKKDDERIDVILPCYNPHEGWEQQLIEKHKELEGMLNGYNIRFIVVNDGSKRGFTEEAVLRLTNNLPNTIIVDNKINQGKGAAVRDGIAHSDSELALYTDYDFPYKIESVCQVIKYLEEGYDVVVANRNHTYYSQLSTRRKLASHASRFLNFMLLGLTHTDTQGGLKGFNCKGKAFLASTRIKQFLFDTEFIYKASLDDTTFIKEVPVDLRGEVMLPDMKKGVFVNELKNLLMICWRG”, the protein production entry is “failed”.

As to “MKDNPISPTIPLDQDGVHHGFLKLPYSRDDSAWGSVMIPITVIQNGAGKTALLTGANHGDEYEGPVALQELAATTRAEDVTGRLIIVPYFNYPAFRASARTSPIDRGNLNRAFPGRPDGTVTQKIADYFQRTLLPMADVAVDFHSGGKTLDFVPFAAAHILEDKVLQDACFAAMQAFNAPYSVQLLEIDSEGMYDTAVEEMGKVLVTTELGGGGMSTARSNAIAKKGLRNVLIHFGILQGEMQIDPSVTLDMPDGDCYLFSEHDGLFEIMIDLGEPVQEGDLVARVWSPDRTGEAPVEYRARRSGVLISRHFPGMIKSGDCAAVIGVVEG”, the protein production result was “not failed”.

Consider “MKDPRDFVPEDLSDLETAMLEMAEKDIRKAYTITDKQERYAALDALKTEIINKFMPETEEDCKFSVDQIATVFKQLQAKIVRSNILDTKKRIDGRDLSTVRPIQSEVGILPRTHGSALFTRGETQAIVVATLGTGEDEQYIDSLTGLEHHHHHH”, for which the protein production entry is “not failed”.

Consider “MKDSIDFGNMEIPRLFRKLLIPTVLGMVFSAVFVITDGIFVGKGIGSDALAAVNITAPLFMITTGIGLMFGVGASVVASIHLSQGKRKVASINITQALAFSALLILVLSALCCYFAEPIGRLLGSSERLLPLVVEYMNWYVPFLVFYLLLSAGMFYIRLDGSPNYAMMCNAVSAIINIILDYVFIFQLGWGMMGAAFATSLGTMVGGLMTLIYLLRFSRNVGIYRIKLSRKSMRLTCRNIGYMIRLGSSAFISEASIASMMFLGNYVFISHLGESGVAAFSIVCYFFPIIFMVYNAIAQSAQPIISYNFGQQNPGRVARTIRLALKTALGCGIFFFAATLVFNHQIVGLFIDKSYQAYDIAVNGIPYFAVGYLFFALNIVGIGYYQSIERARRATVITLFRGTLFMLAGFLLLPPVLGVRGIWLAVPLAELLTLLLIIGIYLKDSFAVRR”, for which the protein production result is reported as “failed”.

Turning to “MKDSVDCPSILPTDRTSVLSETSTLVGSSSHVYSRHAPMNSYHNSMNSNIYHSPKASSPLVSYKTSSPVLLKRATAPVLPSFKPKEQRYNKPQGCSLITAVELGKIIETLPDEKVLLLDVRPFTEHAKSIITNSIHVCLPSTLLRRKNFTFSKLLDNLTPSEQSVLKSKLAIDNLRIIIYDSTANQTESSVSLPCYGIASKLIEFDTNVKKTVSILMCGFPQFKILFPDHINTNTFNSDCISSAEPKSPKTNLMNSLHNTAPHMTATTPLSSPQMNLKLKVPDDSRSDHSNFSSSPSPRNVLSDSPMSSSSPISALFKFQLPAPQTNINQMFKFSQNEEIMGLETYLSAVNIKEEHERWYNNDSAKKSLQNFQFPKNQNSLEKDTNKDKLGFQIRYENLSKNYEKEVIDSVIPEWFQHLMSIPKIELVSQFQKLDFLEKRRLNHSVSFRKKENSFILEKPSSYPEQLTSTSSSTIMPPKFPDVNKVQKRSHSQPIFTQYSKYKSMLSLESDSDSESDDVIISSGVELGAKNRYKDIFPYEHSRVILKKGLQSSKGIKHSHSTSDGGILDNYINANYLSLPRFSVEQNSSFQTTTTTTRRVRYIATQAPMPSTVHDFYTCILNNGVPLVLSLTNDFENGIEKCYRYWQEGNYNGIHVKLLEKKILKMPSTTSMRKNTMGTQNSSLYSAGVQGNSSNYSTDNDNDNDNNNNNNNNSNIPVTAAACDDDDDDDDDAILIRQILLTYHDQEKPYELLQIQVKNWPDLGTLLNPISILQAINVKNHIIDTLFARNYYQNDQLPTILVHCSAGCGRTGTLCTIDSILSNFEMFEMLQKEFVKLKYPAKLFDPISWTINIFRKERISMVQNINQFIFIYDCLLFYFRLRLDDITERTDGDGSNKDNISLSALIEQIEKLEILQTFVDDKLKELPQ”, the protein production entry is on record as “failed”.

Source of the values: a protein production outcome set (Wang et al. 2014).
